# Data published in PMC5998024, “Hydrophobic pore gates regulate ion permeation in polycystic kidney disease 2 and 2L1 channels” (Nature Communications, 2018).
# B1: maltose binding protein fused human PKD2 protein, residues 53-792, harboring the F604P GOF mutation (domain or fragment, UniProt Q13563-1 53-792, looked up)
# chain: EIEMQRIRQAAARDPPAGAAASPSPPLSSCSRQAWSRDNPGFEAEEEEEEVEGEEGGMVVEMDVEWRPGSRRSAASSAVSSVGARSRGLGGYHGAGHPSGRRRRREDQGPPCPSPVGGGDPLHRHLPLEGQPPRVAWAERLVRGLRGLWGTRLMEESSTNREKYLKSVLRELVTYLLFLIVLCILTYGMMSSNVYYYTRMMSQLFLDTPVSKTEKTNFKTLSSMEDFWKFTEGSLLDGLYWKMQPSNQTEADNRSFIFYENLLLGVPRIRQLRVRNGSCSIPQDLRDEIKECYDVYSVSSEDRAPFGPRNGTAWIYTSEKDLNGSSHWGIIATYSGAGYYLDLSRTREETAAQVASLKKNVWLDRGTRATFIDFSVYNANINLFCVVRLLVEFPATGGVIPSWQFQPLKLIRYVTTFDFFLAACEIIFCFFIFYYVVEEILEIRIHKLHYFRSFWNCLDVVIVVLSVVAIGINIYRTSNVEVLLQFLEDQNTFPNFEHLAYWQIQFNNIAAVTVFFVWIKLFKFINFNRTMSQLSTTMSRCAKDLFGFAIMPFIIFLAYAQLAYLVFGTQVDDFSTFQECIFTQFRIILGDINFAEIEEANRVLGPIYFTTFVFFMFFILLNMFLAIINDTYSEVKSDLAQQKAEMELSDLIRKGYHKALVKLKLKKNTVDDISESLRQGGGKLNFDELRQDLKGKGHTDAEIEAIFTKYDQDGDQELTEHEHQQMRDDLEKEREDLDLD
# notes: human PKD2 (polycystin-2, TRPP2), residues 53-792 (E53-D792), with the gain-of-function mutation F604P; cytoplasmic N- and C-termini not seen in the map; also called PKD2 F604P; F604P mutant; source: HEK293S GnTI- cells, transduced with baculovirus, purified (amylose resin, amphipols A8-35, Superdex 200)
# Target: the molecule itself
# Test: cryo-EM structure; single-particle cryo-EM of purified PKD2 F604P (53-792) in amphipols A8-35; C4 symmetry imposed, reconstruction without imposed symmetry also showed C4 symmetry; 3.5 Å
protein,measurement,value
B1,stoichiometry N,4
